Assay [1] has as its target human full-length B7H3 on MCF-7 cells (human) (UniProt Q5ZPR3). Put plainly: cell-based or functional assay.
Assay [2] shares this target. The assay can be described thus: FACS on MCF-7 cells; negative control.
Assay [3] concerns the target cynomolgus monkey B7H3 on transfected FlpinCHO cells (W3XX088-FlpinCHO.cProl.pool) (cynomolgus monkey). Put plainly: FACS on cynomolgus monkey B7H3-transfected FlpinCHO cell pool; negative control.

Chain of human full-length B7H3 on MCF-7 cells (human) (Q5ZPR3 29-534): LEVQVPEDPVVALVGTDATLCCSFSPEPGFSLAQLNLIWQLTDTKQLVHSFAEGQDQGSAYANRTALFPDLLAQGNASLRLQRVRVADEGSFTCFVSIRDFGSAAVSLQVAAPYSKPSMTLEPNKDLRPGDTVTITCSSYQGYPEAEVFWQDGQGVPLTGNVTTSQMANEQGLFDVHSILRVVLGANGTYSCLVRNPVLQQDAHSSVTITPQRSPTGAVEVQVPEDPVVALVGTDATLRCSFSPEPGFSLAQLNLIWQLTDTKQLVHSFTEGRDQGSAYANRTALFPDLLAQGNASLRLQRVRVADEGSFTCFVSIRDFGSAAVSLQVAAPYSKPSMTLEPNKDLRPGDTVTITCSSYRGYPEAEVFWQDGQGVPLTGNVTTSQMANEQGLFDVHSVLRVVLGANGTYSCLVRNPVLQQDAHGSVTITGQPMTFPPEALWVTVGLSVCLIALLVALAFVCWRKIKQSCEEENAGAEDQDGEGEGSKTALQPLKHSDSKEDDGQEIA

Human IgG1 isotype antibody: the Internalization on MCF-7, Max MFI in assay [1] amounted to 21 MFI. For the same substance, the Max MFI amounted to 47.8 MFI in assay [2] and 6.67 MFI in assay [3].

These data come from US20250313633A1.
